Consider one molecule from US20260250396A1 (TRUEBINDING, published 2026).

The target of this experiment is T1, human Galectin-3 (human, UniProt P17931 1-250, limits assumed).
T1 construct: also called Gal-3; Gal3
Description: in vitro affinity; method and format not stated.

T1 sequence (P17931 whole entry): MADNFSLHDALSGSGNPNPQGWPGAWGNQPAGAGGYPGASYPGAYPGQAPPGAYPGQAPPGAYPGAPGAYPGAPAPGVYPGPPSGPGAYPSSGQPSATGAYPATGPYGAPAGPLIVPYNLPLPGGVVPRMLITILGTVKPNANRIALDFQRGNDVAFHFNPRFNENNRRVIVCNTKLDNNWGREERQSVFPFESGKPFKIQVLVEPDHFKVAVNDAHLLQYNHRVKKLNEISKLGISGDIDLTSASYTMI

B1: TB006 (antibody, human IgG4 S228P, kappa, V domains shown)
VH: QVQLVQSGAEVKKPGASVKVSCKASGYSFTNYYMHWVRQAPGQRLEWMGWIYPGSGNTNYNEKFQGRVTITADTSASTAYMELSSLRSEDTAVYYCSTAPGGFDVWGQGTTVTVSS
VL: DIVMTQTPLSLSVTPGQPASISCKSSKSLLHSDGITYLYWYLQKPGQSPQLLIYRMSNLASGVPDRFSGSGSGTDFTLKISRVEAEDVGVYYCAQMLEFPLTFGQGTKLEIKR
notes: also called anti-Gal3 antibody; humanized IgG4 (S228P) type monoclonal antibody
For orientation: Kd means the free concentration of one partner at which half of the binding sites on the other are occupied at equilibrium, for simple one-to-one binding. A high value points to weaker binding. The molecule B1 showed a Kd of 8.4 nM. That is a single-digit nanomolar value.
